In PMC6377682 (2019):

B1: human PP1β^6-327 (enzyme)
chain: LNVDSLITRLLEVRGCRPGKIVQMTEAEVRGLCIKSREIFLSQPILLELEAPLKICGDIHGQYTDLLRLFEYGGFPPEANYLFLGDYVDRGKQSLETICLLLAYKIKYPENFFLLRGNHECASINRIYGFYDECKRRFNIKLWKTFTDCFNCLPIAAIVDEKIFCCHGGLSPDLQSMEQIRRIMRPTDVPDTGLLCDLLWSDPDKDVQGWGENDRGVSFTFGADVVSKFLNRHDLDLICRAHQVVEDGYEFFAKRQLVTLFSAPNYCGEFDNAGGMMSVDETLMCSFQILKPSEKKAKYQYGGLNSGRPVTPPRTANPPKKR
B6: human ASPP2^920-1120 (domain or fragment)
chain: MRVKFNPLALLLDSSLEGEFDLVQRIIYEVDDPSLPNDEGITALHNAVCAGHTEIVKFLVQFGVNVNAADSDGWTPLHCAASCNNVQVCKFLVESGAAVFAMTYSDMQTAADKCEEMEEGYTQCSQFLYGVQEKMGIMNKGVIYALWDYEPQNDDELPMKEGDCMTIIHREDEDEIEWWWARLNDKEGYVPRNLLGLYPRI

Assays:
ASPP2^D1091G/E1092P = biological target: T1, ASPP2^D1091G/E1092P (human, UniProt Q13625 920-1120, D1091G | E1092P); experiment: ITC
T1 sequence: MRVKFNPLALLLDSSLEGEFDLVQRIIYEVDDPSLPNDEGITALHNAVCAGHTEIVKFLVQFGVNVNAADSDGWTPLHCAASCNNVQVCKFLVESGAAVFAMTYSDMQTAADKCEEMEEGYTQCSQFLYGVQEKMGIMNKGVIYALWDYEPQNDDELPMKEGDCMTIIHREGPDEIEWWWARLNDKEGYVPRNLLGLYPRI

human ASPP2^920-1120 = biological target: B6; experiment: ITC
ASPP2^D1093S = biological target: T2, ASPP2^D1093S (human, UniProt Q13625 920-1120, D1093S); experiment: BLI
T2 sequence: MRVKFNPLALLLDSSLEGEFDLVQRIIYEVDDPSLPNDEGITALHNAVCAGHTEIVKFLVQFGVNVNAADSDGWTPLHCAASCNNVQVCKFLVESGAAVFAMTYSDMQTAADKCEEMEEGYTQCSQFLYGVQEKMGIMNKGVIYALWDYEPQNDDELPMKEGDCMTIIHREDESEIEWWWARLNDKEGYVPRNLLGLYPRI

ASPP1^K1052E/S1055D = biological target: T3, ASPP1^K1052E/S1055D (human, UniProt Q96KQ4 882-1090, K1052E | S1055D); experiment: BLI
T3 sequence: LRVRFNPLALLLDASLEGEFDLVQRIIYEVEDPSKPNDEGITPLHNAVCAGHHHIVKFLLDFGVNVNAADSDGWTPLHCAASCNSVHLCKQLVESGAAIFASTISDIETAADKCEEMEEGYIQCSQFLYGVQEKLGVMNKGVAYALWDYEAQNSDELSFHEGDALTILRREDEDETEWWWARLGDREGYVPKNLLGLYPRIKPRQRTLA

ASPP2^E1090K/D1093S = biological target: T4, ASPP2^E1090K/D1093S (human, UniProt Q13625 920-1120, E1090K | D1093S); experiment: BLI
T4 sequence: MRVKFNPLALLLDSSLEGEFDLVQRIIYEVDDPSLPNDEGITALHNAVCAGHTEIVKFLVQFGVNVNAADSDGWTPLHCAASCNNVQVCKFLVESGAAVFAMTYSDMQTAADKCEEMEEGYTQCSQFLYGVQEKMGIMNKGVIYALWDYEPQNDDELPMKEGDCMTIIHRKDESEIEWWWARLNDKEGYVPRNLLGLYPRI

human PP1β^6-327 = biological target: B1; experiment: BLI
human PP1α^7-330 = human PP1α^7-330 (human, UniProt P62136 7-330); experiment: BLI
human PP1γ1^7-323 = human PP1γ1^7-323 (human, UniProt P36873 7-323); experiment: BLI

KNKGKYGQFSGLNPGGRPITPPRNSAKAKK [PP1α^301-330 C-tail peptide] was tested. Which Kd (ASPP2^D1091G/E1092P) did it give?
The Kd was 0.172 µM.

KPAEKKKPNATRPVTPPRVASGLNPSIQ [PP1γ2^297-324 C-tail peptide] was tested. Which Kd (human ASPP2^920-1120) did it give?
Its Kd is 2.15 µM.

Which results are given for B1?
Kd (ASPP2^D1093S): 0.136 µM; Kd (ASPP1^K1052E/S1055D): 0.0844 µM; Kd (ASPP2^E1090K/D1093S): 0.178 µM

B2: human ASPP1^882-1090 (domain or fragment)
chain: LRVRFNPLALLLDASLEGEFDLVQRIIYEVEDPSKPNDEGITPLHNAVCAGHHHIVKFLLDFGVNVNAADSDGWTPLHCAASCNSVHLCKQLVESGAAIFASTISDIETAADKCEEMEEGYIQCSQFLYGVQEKLGVMNKGVAYALWDYEAQNSDELSFHEGDALTILRRKDESETEWWWARLGDREGYVPKNLLGLYPRIKPRQRTLA
How did the Kd (human PP1β^6-327) turn out when B2 was run?
The Kd was 0.0665 µM.

And the Kd (human PP1α^7-330)?
The Kd was 0.059 µM.

And the Kd (human PP1γ1^7-323)?
The Kd was 0.0606 µM.

How did the Kd (human ASPP2^920-1120) turn out when KNKGKYGQFSGLNPGGRPITPPRNSAKAAK [PP1α^301-330 K329A peptide] was run?
Its Kd is 0.342 µM.

B3: human iASPP^621-828 (domain or fragment)
chain: RRARLNPLVLLLDAALTGELEVVQQAVKEMNDPSQPNEEGITALHNAICGANYSIVDFLITAGANVNSPDSHGWTPLHCAASCNDTVICMALVQHGAAIFATTLSDGATAFEKCDPYREGYADCATYLADVEQSMGLMNSGAVYALWDYSAEFGDELSFREGESVTVLRRDGPEETDWWWAALHGQEGYVPRNYFGLFPRVKPQRSKV
How did the Kd (human PP1α^7-330) turn out when B3 was run?
Its Kd is 0.0024 µM.

And the Kd (human PP1γ1^7-323)?
The Kd was 0.0049 µM.

B4: PP1γ1^298-323 chimera with the PP1α C-terminal residues NSAKAKK (peptide)
chain: PAEKKKPNATRPVTPPRNSAKAKK
modifications: synthetic peptide, termini not stated; the end of the PPII motif (RPVTPPR) is taken as Arg314 by alignment with PP1α 317-323
With B4 as the binder, how does the Kd (human ASPP2^920-1120) read?
Its Kd is 0.326 µM.

B5: PP1γ2^297-324 chimera with the PP1α C-terminal residues NSAKAKK (peptide)
chain: KPAEKKKPNATRPVTPPRNSAKAKK
modifications: synthetic peptide, termini not stated; γ2 is identical to γ1 through the PPII motif (end taken as Arg314 by alignment), so the canonical entry is used
How did the Kd (human ASPP2^920-1120) turn out when B5 was run?
Its Kd is 0.326 µM.

How did the Kd (human ASPP2^920-1120) turn out when KNKGKYGQFSGLNPGGRPITPPRNSAAAKK [PP1α^301-330 K327A peptide] was run?
The Kd was 0.52 µM.

With B6 as the binder, how does the Kd (human PP1β^6-327) read?
The Kd was 0.177 µM.

And the Kd (human PP1γ1^7-323)?
The Kd was 0.195 µM.

B7: PP1β^297-327 chimera with the PP1α C-terminal residues NSAKAKK (peptide)
chain: PSEKKAKYQYGGLNSGRPVTPPRNSAKAKK
modifications: synthetic peptide, termini not stated; the end of the PPII motif (RPVTPPR) is taken as Arg319 by alignment with PP1α 317-323
How did the Kd (human ASPP2^920-1120) turn out when B7 was run?
Its Kd is 0.2 µM.

With PAEKKKPNATRPVTPPRGMITKQAKK [PP1γ1^298-323 C-tail peptide] as the binder, how does the Kd (human ASPP2^920-1120) read?
The Kd was 0.69 µM.

With KNKGKYGQFSGLNPGGRPITPPRNSAKAKA [PP1α^301-330 K330A peptide] as the binder, how does the Kd (human ASPP2^920-1120) read?
Its Kd is 0.326 µM.

How did the Kd (human ASPP2^920-1120) turn out when PSEKKAKYQYGGLNSGRPVTPPRTANPPKKR [PP1β^297-327 C-tail peptide] was run?
Its Kd is 0.965 µM.
